Reference: PMC10511320, “R-loop-dependent promoter-proximal termination ensures genome stability”

Columns and labels:
[1] = target: SSB1 S172P/H173L (human, UniProt Q9BQ15 1-211, S172P;H173L); test: EMSA; retains ssDNA binding; EMSA: 100 nM Cy3 probe, 20 mM Tris-HCl pH 7.5, 50 mM NaCl, 5 mM MgCl2, 0.2 mM EDTA, 1 mM DTT, on ice 30 min; 6% native PAGE, 0.5x TBE, cold room; settings: protein: recombinant; label: 3' Cy3
[2] = target: SSB1 R206Q (human, UniProt Q9BQ15 1-211, R206Q); test: as above; settings: protein: recombinant; label: 3' Cy3
[3] = target: SSB1;INTAC complex (Integrator-PP2A) (human;human, UniProt Q9BQ15;Q8N201;Q9H0H0;Q68E01;Q96HW7;Q6P9B9;Q9UL03;Q9NVH2;Q75QN2;Q9NV88;Q9NVR2;Q5T …, |); test: EMSA; supershift versus SSB1 alone; EMSA: 100 nM Cy3 probe, 20 mM Tris-HCl pH 7.5, 50 mM NaCl, 5 mM MgCl2, 0.2 mM EDTA, 1 mM DTT, on ice 30 min; 6% native PAGE, 0.5x TBE, cold room; settings: protein: recombinant;recombinant; on-column cleavage; copies: 1;1;1;1;1;1;1;1;1;1;1;1;1;1;1;1;1; label: 3' Cy3

Measured: binding result

Chain of SSB1 S172P/H173L (Q9BQ15 whole entry S172P/H173L): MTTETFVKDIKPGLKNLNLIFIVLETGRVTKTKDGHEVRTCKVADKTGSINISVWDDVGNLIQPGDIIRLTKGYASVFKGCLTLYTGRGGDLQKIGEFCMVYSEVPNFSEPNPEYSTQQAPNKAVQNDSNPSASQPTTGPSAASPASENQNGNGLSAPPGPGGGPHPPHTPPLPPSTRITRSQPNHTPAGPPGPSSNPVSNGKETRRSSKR
Chain of SSB1 R206Q (Q9BQ15 whole entry R206Q): as the sequence (Q9BQ15 whole entry S172P/H173L) above, with P172S, L173H, R206Q counted along it

TTTTTTTTTTTTTTTTTTTTTTTTTTTTTTTTTTTTTTTTTTTTTTTT (ssDNA) [oligo (dT)48]
binds: [1] | [2] | [3]
